As a reminder, the EC50 is the concentration giving half of the maximal effect. What is called EC50 (read off the curve) is the concentration giving half of the maximal effect. The Kd is the concentration at which binding is half-saturated.

Changes are numbered by the printed parent chain. Names may count otherwise. Read-outs that look alike come from different tables or passages of the source.

Consider five molecules from US20230348630A1 (BEIJING MABWORKS BIOTECH, published 2023).

For experiment [1], the target named is T1, CD3 on Jurkat cells (UniProt P04234 22-171; P07766 23-207).
T1 construct: whole, on cells
T1 sequence (P04234 22-171, chain 1 of 2): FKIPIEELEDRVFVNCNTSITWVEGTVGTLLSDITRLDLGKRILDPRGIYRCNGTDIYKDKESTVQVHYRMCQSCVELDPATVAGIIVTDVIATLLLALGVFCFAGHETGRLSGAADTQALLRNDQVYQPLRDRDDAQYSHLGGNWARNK
T1 sequence (P07766 23-207, chain 2 of 2): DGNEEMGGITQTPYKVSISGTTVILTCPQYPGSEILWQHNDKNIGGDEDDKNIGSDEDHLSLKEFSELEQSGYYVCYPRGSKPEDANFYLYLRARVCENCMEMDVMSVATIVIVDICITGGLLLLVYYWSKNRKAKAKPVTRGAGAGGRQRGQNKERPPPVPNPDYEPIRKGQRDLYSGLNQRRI
Put plainly: flow cytometry on Jurkat cells. Here is the method:
(§1) Jurkat cells were collected, centrifuged at 300 g for 5 min, and suspended in PBS. After another centrifugation, the cells were suspended in 2% FBS-PBS at the cell density of 3×10⁶/ml, and […] were plated onto a U-bottom plate. The plate was added with 50 μl serially diluted anti-CD3 antibodies of the disclosure in 2% FBS-PBS (4-fold dilution, starting at 20 μg/ml), and incubated at room temperature for 1 h. The plate was washed with 2% FBS-PBS for three times, added with 50 μl PE-labeled goat-anti-human IgG (H+L) (1: 500), and incubated at room temperature for 45 min. The plate was washed with 2% FBS-PBS again for three times, and added with 150 μl 2% FBS-PBS to suspend the cells. The plate was measured for cell fluorescence using a cytometry, and the data was processed with FlowJo and analyzed with GraphPad.
Following the protocol of Example 11, the bispecific antibodies of the disclosure were tested for their binding capability to Jurkat cells.
For orientation: In flow cytometry, cells or beads pass a laser one at a time.

The target in experiment [2] is T2, CD3D&E protein (Cat #: CT038-H2508H, Sino Biological) (human, UniProt P04234 22-105; P07766 23-126).
T2 construct: Bought complex of the delta and epsilon chains; also called CD3D&E complex; human CD3D&E complex
T2 sequence (P04234 22-105, form in doubt, chain 1 of 2): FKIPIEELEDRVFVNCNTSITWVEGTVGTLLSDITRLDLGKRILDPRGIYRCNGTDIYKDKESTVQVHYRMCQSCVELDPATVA
T2 sequence (P07766 23-126, form in doubt, chain 2 of 2): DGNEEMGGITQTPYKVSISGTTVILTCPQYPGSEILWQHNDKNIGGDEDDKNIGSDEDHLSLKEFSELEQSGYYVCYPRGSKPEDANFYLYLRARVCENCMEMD
Put plainly: ELISA, coated CD3D&E. Here is the method: (§2) The purified bispecific antibodies were tested for their binding capability to recombinant human CD3 and human BCMA proteins by ELISA, following the protocols in Example 4 and Example 9.
(In general: In an ELISA, binding on a coated surface is turned into a signal by an enzyme label.)

For experiment [3], the target named is T3, BCMA-his protein (Cat #: BCA-H522y, ACRO) (human, UniProt Q02223 1-54).
T3 construct: Bought recombinant protein; the construct is most likely only a soluble part of it; also called BCMA protein; human BCMA
T3 sequence: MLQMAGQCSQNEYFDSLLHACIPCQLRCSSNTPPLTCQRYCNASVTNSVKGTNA
Put plainly: SPR (BIAcore 8K), protocol of Example 5. Here is the method: (§3) Following the protocols in Example 5 and Example 10, the bispecific antibodies of the disclosure were tested for their binding affinity to CD3D&E and human BCMA.
In general terms: In SPR one partner is held on a chip, and binding of the other changes the refractive index at the surface.

The target in experiment [4] is T4, human BCMA on HEK293A/human BCMA cells (human, UniProt Q02223 1-184).
T4 sequence: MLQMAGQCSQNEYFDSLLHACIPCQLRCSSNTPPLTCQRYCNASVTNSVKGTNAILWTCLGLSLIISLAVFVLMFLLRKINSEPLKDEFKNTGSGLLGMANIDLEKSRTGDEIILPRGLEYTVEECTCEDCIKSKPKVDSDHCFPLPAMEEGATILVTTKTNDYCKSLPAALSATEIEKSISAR
Put plainly: flow cytometry on HEK293A/human BCMA cells. Here is the method:
(§4) The anti-BCMA antibody's binding capability to cell surface BCMAs was tested by FACS. Briefly, HEK293A/human BCMA cells, HEK293A/monkey BCMA cells and HEK293A/mouse BCMA cells, as generated in Example 1, were collected, digested with trypsin, and subjected to centrifugation at 300 g for 5 min. The cells were suspended in PBS, and subjected to centrifugation again. The cells were re-suspended in PBS with 2% FBS at the cell density at 4×10⁶/ml, and 50 μl cells were seeded onto a U-bottom plate. […] The plate was washed with 2% FBS-PBS for three times, added with 50 μl PE-labeled goat-anti-human IgG (H+L) (1: 500), and incubated at room temperature for 45 min. The plate was washed with 2% FBS-PBS again for three times, and added with 150 μl 2% FBS-PBS to suspend the cells. The plate was measured for cell fluorescence using a cytometry, and the data was processed with FlowJo and analyzed with GraphPad.
(§5) Following the protocol of Example 6, the bispecific antibodies of the disclosure were tested for their binding capability to the HEK293A/human BCMA cells, HEK293A/monkey BCMA cells, and HEK293A/mouse BCMA cells as generated in Example 1.

The target of experiment [5] is T5, mouse BCMA on HEK293A/mouse BCMA cells (mouse, UniProt O88472 1-185).
T5 sequence: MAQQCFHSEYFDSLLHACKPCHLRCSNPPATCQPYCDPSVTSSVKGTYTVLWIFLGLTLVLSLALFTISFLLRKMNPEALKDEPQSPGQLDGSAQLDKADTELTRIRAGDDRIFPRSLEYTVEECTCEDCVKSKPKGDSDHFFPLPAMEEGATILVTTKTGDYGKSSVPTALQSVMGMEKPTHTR
In words: flow cytometry on HEK293A/mouse BCMA cells [continued) E]. Here is the method:
as §4, §5

In experiment [6] the target is monkey BCMA on HEK293A/monkey BCMA cells (monkey, UniProt Q02223 1-184 (human entry)). In words: flow cytometry on HEK293A/monkey BCMA cells. Here is the method: as §4, §5
Chain of monkey BCMA on HEK293A/monkey BCMA cells (Q02223 other isoform, or with tags, fused parts or gaps): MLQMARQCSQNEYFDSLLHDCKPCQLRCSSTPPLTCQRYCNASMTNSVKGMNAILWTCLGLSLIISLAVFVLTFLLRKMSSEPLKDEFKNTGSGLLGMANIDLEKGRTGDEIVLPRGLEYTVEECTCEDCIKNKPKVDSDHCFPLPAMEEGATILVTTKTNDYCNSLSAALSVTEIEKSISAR
Experiment [7] concerns the target T2, CD3D&E protein (Cat #: CT038-H2508H, …). In words: SPR (BIAcore 8K), protocol of Example 10. Here is the method:
as §3

Experiment [8] concerns the target T3, BCMA-his protein (Cat #: BCA-H522y, …). Put plainly: ELISA, coated BCMA protein. Here is the method:
Briefly, an ELISA plate was coated with 100 μl 1 μg/ml BCMA protein (Cat #: BCA-H522y, ACRO) in PBS overnight at 4° C. Then, the plate was blocked with 250 μl PBST with 4% skimmed milk at room temperature for 1 h. […] The negative control well was added with PBST instead of the antibody. The plate was washed with PBST for three times, added with 100 μl HRP conjugated goat anti-human IgG (1:7000, Cat #: 31413, thermofisher), and incubated at room temperature for 1 h. The plate was washed again with PBST for four times, added with 100 μl freshly prepared TMB (Cat #: 555214, BD, USA), and left still for color development, which was terminated with 50 μl 10% H₂SO₄. The absorbance was read at 450 nm, and the data was processed and analyzed using GraphPad.
as §2

In experiment [9] the target is T2, CD3D&E protein (Cat #: CT038-H2508H, …). In words: ELISA, coated CD3D&E. This is another data set of the same source.
For experiment [10], the target named is T1, CD3 on Jurkat cells. In words: flow cytometry on Jurkat cells. Here is the method:
as §1
This is another data set of the same source.

Experiment [11] addresses T2, CD3D&E protein (Cat #: CT038-H2508H, …). Put plainly: SPR (BIAcore 8K), antibody captured by anti-human Fc, CD3D&E as analyte. Here is the method: Briefly, the mouse anti-human Fc antibodies were coupled to a CM5 biosensor chip. The anti-CD3 antibodies of the disclosure in the HBS-EP buffer (Cat #: BR-1006-69, GE Life Sciences) at the concentration of 1 μg/ml was flowed through the chip, where about 100 RU of the antibodies were captured by the mouse anti-human Fc antibodies. Serially diluted CD3D&E molecules (Cat #: CT038-H2508H, Sino Biological) in the HBS-EP buffer (Cat #: BR-1006-69, GE Life Sciences) (2-fold dilution starting at 20 μg/ml) were respectively flowed through the chip. Chip regeneration was performed with 3 M MgCl₂.

B1: anti-CD3/BCMA bispecific antibody MBS305-H1-KIH (bispecific antibody, human IgG1, kappa, L234A L235A, N297A)
heavy 1: QVQLVQSGAEVKKPGASVKVSCKASGYTFTNHIIHWVRQAPGQGLEWMGYINPYPGYHGYNDKFSGRATMTSDTSTSTVYMELSSLRSEDTAVYYCARDGYYRDQDVLDYWGQGTLVTVSSASTKGPSVFPLAPSSKSTSGGTAALGCLVKDYFPEPVTVSWNSGALTSGVHTFPAVLQSSGLYSLSSVVTVPSSSLGTQTYICNVNHKPSNTKVDKKVEPKSCDKTHTCPPCPAPEAAGGPSVFLFPPKPKDTLMISRTPEVTCVVVDVSHEDPEVKFNWYVDGVEVHNAKTKPREEQYASTYRVVSVLTVLHQDWLNGKEYKCKVSNKALPAPIEKTISKAKGQPREPQVYTLPPSREEMTKNQVSLSCAVKGFYPSDIAVEWESNGQPENNYKTTPPVLDSDGSFFLVSKLTVDKSRWQQGNVFSCSVMHEALHNHYTQKSLSLSPGK
light 1: not shown
heavy 2: QVQLVQSGAEVKKPGASVKVSCKASGYTFTNHIIHWVRQAPGQGLEWMGYINPYPGYHGYNDKFSGRATMTSDTSTSTVYMELSSLRSEDTAVYYCARDGYYRDQDVLDYWGQGTLVTVSSGGGGSGGGGSGGGGSGGGGSDIQMTQSPSSLSASVGDRVTITCKASQDISQYLNWYQQKPGKAPKLLIYYTSGLHPGVPSRFSGSGSGTDFTFTISSLEPEDEATYYCQQGYALPWTFGQGTKLTAKRGGGGSGGGGSGGGGSEVQLVESGGGLVQPGRSLRLSCAASGFTFSDYTMHWVRQAPGKGLEWVSGISWNTGTIGYADSVKGRFTISRDNAKKSLYLQMNSLRAEDTALYYCAKDNSGYGHYYFGMDVWGQGTTVTVASASTKGPSVFPLAPSSKSTSGGTAALGCLVKDYFPEPVTVSWNSGALTSGVHTFPAVLQSSGLYSLSSVVTVPSSSLGTQTYICNVNHKPSNTKVDKKVEPKSCDKTHTCPPCPAPEAAGGPSVFLFPPKPKDTLMISRTPEVTCVVVDVSHEDPEVKFNWYVDGVEVHNAKTKPREEQYASTYRVVSVLTVLHQDWLNGKEYKCKVSNKALPAPIEKTISKAKGQPREPQVYTLPPSREEMTKNQVSLWCLVKGFYPSDIAVEWESNGQPENNYKTTPPVLDSDGSFFLYSKLTVDKSRWQQGNVFSCSVMHEALHNHYTQKSLSLSPGK
light 2: not shown
In the case of B1, the EC50 in [1] was found to be 0.00173 µg/mL; in experiment [2], 0.0468 µg/mL; in experiment [4] it was 0.221 µg/mL; in [6], 0.337 µg/mL; in experiment [8] it was 0.0117 µg/mL. For the same molecule, in experiment [1], the “EC50 (read off the curve)” value was about 2 µg/mL. For the same molecule, the Kd in experiment [3] came out at 0.168 nM; in experiment [7], 8.09 nM. In experiment [5], the binding result was “no binding (tested: about 30000 ng/ml (LOG10 about 4.5))”.

B2: anti-CD3/BCMA bispecific antibody MBS305-H2-KIH (bispecific antibody, human IgG1, kappa, L234A L235A, N297A)
heavy 1: B1 heavy 1
light 1: not shown
heavy 2: B1 heavy 2 with S294D, Y296F, T297A, S316T, T319S, T321S, I322V, N364R, F372Y
light 2: not shown
Take B2: the 50% effective concentration (EC50) in [1] was 0.00328 µg/mL; in experiment [2], 0.141 µg/mL; in [4], 0.285 µg/mL; in experiment [6], 0.373 µg/mL; in experiment [8], 0.0124 µg/mL. Further, the equilibrium dissociation constant (Kd) in [3] turned out to be 0.206 nM; in [7], 256 nM. Moreover, the binding result in experiment [5] was “no binding (tested: about 30000 ng/ml (LOG10 about 4.5))”.

B3: anti-CD3/BCMA bispecific antibody MBS305-M-KIH (bispecific antibody, human IgG1, kappa, L234A L235A, N297A)
heavy 1: B1 heavy 1
light 1: not shown
heavy 2: B1 heavy 2 with S294D, D295S, T297S, T319S, T321S, I322L, N364R, F372Y
light 2: not shown
B3: the concentration giving a half-maximal response (EC50) in [1] amounted to 0.00106 µg/mL; in experiment [2], 0.089 µg/mL; in [4] it was 0.199 µg/mL; in experiment [6], 0.23 µg/mL; in [8], 0.0137 µg/mL. Besides, in [1], the “EC50 (read off the curve)” value was about 1 µg/mL. The Kd was 0.105 nM in experiment [3] and 37.9 nM in experiment [7]. Further, the binding result in experiment [5] is reported as “no binding (tested: about 30000 ng/ml (LOG10 about 4.5))”.

B4: anti-CD3D&E antibody D8E5, full-length human IgG1 (L234A/L235A/N297A)/kappa (antibody, V domains shown)
VH: EVQLVESGGGLVQPGRSLRLSCAASGFTFDSYSMHWVRQAPGKGLEWVSGISWNSGSLGYADSVKGRFTISRDNAKKSLYLQMNSLRAEDTALYYCAKDRSGYGHYYYGMDVWGQGTTVTVAS
VL: EIVMTQSPATLSVSPGERATLSCRASRSVSLNVAWYQQKPGQAPRLLIYGASTKYTGIPARFSGSGSGTEFTLTISSLQSEDFAVYYCQQYINWPLTFGGGTKVEIKR
As for B4, the half-maximal effective concentration (EC50) in experiment [9] is 0.00816 µg/mL; in [10], 0.0411 µg/mL. The Kd in experiment [11] was found to be 30 nM.

B5: anti-CD3D&E antibody 7-1A12, full-length human IgG1 (L234A/L235A/N297A)/kappa (antibody, V domains shown)
VH: B4 VH with D30S, S31D, S33T, S55T, S57T, L58I, R100N, Y108F
VL: B4 VL with R27Q, L31R, K54R, Y55Q, Q90S, T97Q
Regarding B5, the EC50 was 0.00402 µg/mL in experiment [9] and 0.119 µg/mL in experiment [10]. This molecule returned a dissociation constant Kd in experiment [11] of 6.54 nM.
